The RNAGym collection of RNA variant scans (doi:10.7554/elife.90254)

B1: OR4K15 (parent)
chain: GUUAACGGUCAUAGGCCAUGGAAACUAGGAGCACCAUUUCGCUGCCAGUGAAGAAAUGAACAAAGAAAAUCUGGGCCAGGCAGGCAUCAAAAGAAAUAGUCUUGCGCUCAACCAGAAAGUCUGUAAUCAUUUUAAGGGUA

Variants of: B1
Assay: self-cleavage, relative activity (ratio to wild type); higher = more cleavage; in vitro, sequencing; the parent is a self-cleaving ribozyme

| Variant | self-cleavage |
| --- | --- |
| A110U U127C | 0.44 |
| A98U G115A | 0.1 |
| A98G A114U | 0.02 |
| U102A G119A | 1.23 |
| A98G U103C | 0.05 |
| U103A U108A | 0.02 |
| U102C U130A | 1.61 |
| U103C A114G | 0.51 |
| A110U A126G | 1.05 |
| C109A A117G | 0.59 |
| A110U A117C | 0.29 |
| U102A U103A | 0.12 |
| C109U A135G | 0.38 |
| U100A U124C | 0.18 |
| A98G G104A | 0.01 |
| C105G A117G | 0.02 |
| C107U U130C | 0 |
| G104A U132C | 0.04 |
| U100A C113U | 0.11 |
| A98G U122C | 0.34 |
| A98G U122A | 0.57 |
| U103G U131C | 0.01 |
| U102A A111G | 0.03 |
| C105U A116G | 0.03 |

| Variant | self-cleavage |
| --- | --- |
| U108C C128G | 0.01 |
| U108C A135U | 0.01 |
| U108C A117C | 0.06 |
| U108C A117G | 0.01 |
| C107U A111G | 0 |
| A110G A125G | 0.07 |
| C109A A118G | 0.32 |
| U103C A140U | 1.14 |
| U100C U120C | 2.65 |
| U108C C113A | 0.01 |
| A98G U139C | 0.5 |
| A98G U139G | 0.86 |
| A98G A125G | 0.13 |
| A110U A111G | 0.01 |
| U108C A111U | 0 |
| U108C A111C | 0.01 |
| U108C A111G | 0.01 |
| A98G A116G | 0.12 |
| G104U A114U | 0.02 |
| U100C G137A | 2.22 |
| U100C C109U | 0.89 |
| U103A G137A | 0.85 |
| A98G U133A | 0.24 |
| A98G U133C | 0.65 |

| Variant | self-cleavage |
| --- | --- |
| U103G U127C | 0 |
| C109A U122C | 0.28 |
| G99A U132A | 0.23 |
| C105U U132C | 0.16 |
| U103C U127C | 0.26 |
| U103C U127A | 1.27 |
| A110G A111U | 0.04 |
| A111G A134G | 0.01 |
| A111G A134U | 0.02 |
| U97C U130A | 0.78 |
| U103A A126G | 0.34 |
| C107U U108C | 0.02 |
| U103A U124C | 0.07 |
| U100C U130C | 2.02 |
| U108A A116U | 0.02 |
| C105U A111G | 0.02 |
| U103A A118C | 0.53 |
| U103C U132C | 0.85 |
| A110G U131C | 0.08 |
| U100A U131C | 0.36 |
| U103C A117G | 0.71 |
| U103C A117C | 0.29 |
| U100C A114U | 0.16 |
| U100C A114G | 1.34 |

| Variant | self-cleavage |
| --- | --- |
| U100C U102C | 1.62 |
| U108A A126G | 0.01 |
| G106U U122C | 0 |
| U100C U122A | 2.11 |
| U100C U122G | 2.48 |
| U100C U122C | 1.66 |
| A98G A135G | 0.83 |
| C105A U124A | 0.02 |
| C107G U108A | 0.01 |
| A110G A135U | 0.12 |
| U100C U127C | 1.61 |
| C101A | 0.21 |
| C101U | 0.41 |
| A110U U132C | 0.71 |
| A110U U132A | 1.8 |
| A98G G99U | 1.42 |
| U102A A116C | 0.21 |
| U103C A111G | 0.02 |
| U108A A135U | 0.02 |
| C101U U120A | 0.4 |
| U103C U122C | 0.55 |
| G99A U102A | 0.1 |
| C105A U122A | 0 |
| C109A U127C | 0.17 |

| Variant | self-cleavage |
| --- | --- |
| U108A A118G | 0 |
| U108C A134G | 0.07 |
| A110G U132C | 0.07 |
| U102C A116U | 0.23 |
| U102C A116G | 0.7 |
| U103A U133C | 0.61 |
| U103A A140U | 0.46 |
| U103A U131G | 0.22 |
| G99A A111G | 0.02 |
| U100C U139C | 2.29 |
| U100C U139A | 2.28 |
| U103A U122C | 0.35 |
| U108A A117G | 0.02 |
| C105A U131C | 0.05 |
| A98U U122C | 2 |
| U102C A114U | 0.11 |
| U102C A114G | 0.68 |
| C105A A134G | 0.05 |
| U102A A140G | 1.02 |
| U102A A140U | 1.14 |
| A110G U122G | 0.26 |
| A110G U122A | 0.11 |
| A110G U122C | 0.09 |
| U103A A134G | 0.27 |

| Variant | self-cleavage |
| --- | --- |
| U103A A134U | 0.87 |
| G99A C113U | 0.05 |
| A98U U131C | 2.12 |
| U108C U131A | 0.02 |
| U102A A114G | 0.43 |
| U103A A116G | 0.14 |
| U108A U127A | 0.03 |
| U100C A116C | 0.97 |
| U100C A116G | 1.32 |
| U102C C107U | 0.01 |
| C107A U122C | 0.01 |
| U100G A126G | 1.02 |
| U102C U108C | 0.01 |
| U102C U108A | 0.01 |
| U100A A134G | 0.37 |
| U102C U103A | 0.2 |
| G104U A140G | 0 |
| U108A A114G | 0.02 |
| G104A U122C | 0.02 |
| U108A U124C | 0.01 |
| A111G A114U | 0 |
| A111G A114G | 0.02 |
| A111G A114C | 0 |
| A98G U127C | 0.39 |

| Variant | self-cleavage |
| --- | --- |
| A98G A118G | 0.26 |
| A110G U120C | 0.06 |
| G106U U132A | 0.03 |
| U100C U131C | 2.14 |
| G106A U127A | 0.01 |
| C105G A135G | 0.03 |
| U103C U124C | 0.96 |
| A110G U139A | 0.05 |
| C107U A135G | 0.01 |
| A110G A140U | 0.18 |
| U102A U127C | 0.74 |
| G99A U130C | 0.13 |
| A98G A111G | 0.01 |
| U108C A116U | 0 |
| U108C A116G | 0.01 |
| U102A G115A | 0.06 |
| G104A A116U | 0 |
| U102C U120C | 2.34 |
| A110G U127A | 0.15 |
| C107G A118G | 0.01 |
| U103C A118U | 0.3 |
| U102G U130A | 0.29 |
| U100C U108C | 0.01 |
